Measurements published in the supplement of paper PMC7125110.
± gives the standard error. Variants at the floor of the assay were thinned out.

B1: glmS ribozyme (parent)
chain: AUAAAAGCGCCAGAACUACAGAAAUGUAGUUGACGAGGAGGAGGUUUAUCGAAUUUUCGGCGGAUGCCUCCAAA

Columns and labels:
Details in all cases: with glucosamine-6-phosphate
glucosamine-6-phosphate [1] = variants of: B1; test: self-cleavage kobs at 640 uM GlcN6P; higher = faster cleavage; RNA array
Method in brief: (§1)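 Barcoded ribozyme variants were transcribed in situ on sequenced MiSeq chips by E. coli RNA polymerase. At 37 °C, a hybridised Cy3 probe tracked them while glucosamine-6-phosphate (40 μM to 10 mM) in HEPES/KCl/Mg(OAc)2 buffer flowed in and tiles were imaged over ~14 h. Per-tile medians of signals normalised to baseline and to non-cleaving reference variants were fit to one- or two-exponential decays, giving kobs. kcat and KM came from weighted Michaelis–Menten fits across concentrations.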

glucosamine-6-phosphate [2] = variants of: B1; test: self-cleavage kobs at 2500 uM GlcN6P; higher = faster cleavage; RNA array
Method in brief: as §1

glucosamine-6-phosphate [3] = variants of: B1; test: self-cleavage kobs at 10000 uM GlcN6P; higher = faster cleavage; RNA array
Method in brief: as §1

Variant	self-cleavage kobs at 640 uM GlcN6P (glucosamine-6-phosphate [1]) [s⁻¹]	self-cleavage kobs at 2500 uM GlcN6P (glucosamine-6-phosphate [2]) [s⁻¹]	self-cleavage kobs at 10000 uM GlcN6P (glucosamine-6-phosphate [3]) [s⁻¹]
A42G G43A U46G G66U	< 1e-05	< 1e-05	
C34G G51A C67U	< 1e-05		
G41A U65G	< 1e-05		
G32U G41U A52G G60A	< 1e-05		
G37A C61A C70U	< 1e-05	< 1e-05	< 1e-05
A39U U49C C68G	< 1e-05	< 1e-05	< 1e-05
G37U G59U G63A	< 1e-05	< 1e-05	
A39G U46C U47G U65A	0.0001 ± 3.8e-05		
G38A C61A G62C	< 1e-05	< 1e-05	< 1e-05
G41U U46G A48C U49C	< 1e-05		
C34A U46C A53G G60C C61A	< 1e-05	< 1e-05	
G41A G44A G60A	< 1e-05		
G37A U54G U69A	0.000103 ± 2.5e-05	5.96e-05 ± 2.2e-05	
A36C U46G U54A U55G	< 1e-05		
G41C U45G C71U	4.68e-05 ± 1.6e-05	0.000157 ± 3.9e-05	
A33C G59A C67U	< 1e-05		
A36G G37C U46C	< 1e-05	< 1e-05	

Variant	self-cleavage kobs at 640 uM GlcN6P (glucosamine-6-phosphate [1]) [s⁻¹]	self-cleavage kobs at 2500 uM GlcN6P (glucosamine-6-phosphate [2]) [s⁻¹]	self-cleavage kobs at 10000 uM GlcN6P (glucosamine-6-phosphate [3]) [s⁻¹]
A39U A42G U65G	0.000684 ± 0.00016		
G38A G44U C50A	< 1e-05		
A36C G37A A64G	< 1e-05		
A42C C67U C71G	< 1e-05		
G37C U57A A64C C71A	< 1e-05	< 1e-05	
A42G A64G C71G	0.000615 ± 0.00014	0.00107 ± 0.0003	0.000757 ± 0.00025
G37A C50U G51U	< 1e-05	< 1e-05	
A33U A42G C68A	< 1e-05	< 1e-05	
C34G G44A U56C U57C	< 1e-05		
A36G A42C U57C G59U	< 1e-05	< 1e-05	
G38C A42G U49G A52G G63C	< 1e-05	< 1e-05	
A39C U45A C68G	< 1e-05		
G35A C50U G62C C68G	< 1e-05		
G38A C61U C68U	< 1e-05		
A42G G43A G44C	< 1e-05	< 1e-05	
A33U U57A C58U C70A C71G	9.76e-05 ± 2.5e-05		
